The subject of one assay is human ES cells. The assay can be described thus: Study for addition-concentration of BMP signaling pathway-activating substance in cell cluster production (Experiment 7). The assay is classed as cell-based. The procedure: In Experiment 7, a study of cell cluster production efficiency was performed for concentration of the BMP signaling pathway-activating substance in step (2), using human ES cells. The same experimental manipulations as in Experiment 2 (see the upper section of FIG. 8) were performed, and the concentration of BMP4 in the medium in step (2) was set to 7 conditions of 0.025 nM, 0.1 nM, 0.25 nM, 0.5 nM, 1.5 nM, 5 nM, and addition-free control.
On day 28 after the start of suspension culturing, bright-field observation was performed with an inverted microscope.
In addition, evaluation was performed for the cell clusters formed by adding each concentration of BMP4 according to the following four stages: cell cluster in a form close to spherical, whose 80% or more of the entire circumference was covered with non-neural epithelial tissue part (Grade 1, example=FIG. 20A); cell cluster whose 40% to 80% of the entire circumference was covered with non-neural epithelial tissue part or cell cluster in a distorted form (Grade 2, example=FIG. 20B); cell cluster whose ratio of non-neural epithelial tissue parts in the surface of the cell cluster was 40% or less (Grade 3, example=FIG. 20C); and cell cluster in which no non-neural epithelial tissue part was formed (Grade 4, example=FIG. 20D). The evaluation was performed by bright-field observation with an inverted microscope. As a result, non-neural epithelial tissues were not observed under the culture condition without adding of BMP4, as shown in FIG. 20E. Under the culture conditions in which 0.5 nM or more BMP4 was added in step (2), the Grade 1 cell clusters in a form close to a sphere, whose 80% or more of the entire circumference was covered with the non-neural epithelial tissue parts, were formed with high efficiency.

The next assay relates to human iPS cells. The assay can be described thus: Study for time to add BMP signaling pathway-activating substance in cell cluster production (Experiment 11). The assay is classed as cell-based. As to conditions: observed day 13. The procedure: In Experiment 11, study of cell cluster production efficiency was performed for time to add the BMP signaling pathway-activating substance, that is, the start time of step (2), by changing the time to add the BMP signaling pathway-activating substance from day 1 to day 6 after the start of suspension culturing, using human iPS cells. The experiments were performed in accordance with the procedures shown in the upper section of FIG. 25, and the same experimental manipulations as in Experiment 3 were performed except for those specifically indicated.
Maintenance-cultured human iPS cells were subjected to step (a), and then the human iPS cells dispersed into single cells were suspended into 100 μl of a serum-free medium in a non-cell-adhesive 96-well three-dimensional culture vessel (PrimeSurface 96 slit-well plate, MS-9096S, manufactured by Sumitomo Bakelite Co., Ltd.) to be 1×10^4 cells per well, and the cells were suspension-cultured under conditions of 37° C., 5% CO2. At the start of suspension culturing (day 0 after the start of suspension culturing, start of step (1)), Y27632 (final concentration 20 μM), IWP-2 (final concentration 2 μM) and SB-431542 (final concentration 1 μM) were added to the serum-free medium.
On any of days 1, 2, 3, 4, and 6 after the start of suspension culturing, a serum-free medium being free of Y27632 and containing IWP-2, SB-431542 and BMP4 was added at 100 μl per well (start of step (2)). BMP4 was added to the medium at 3 nM to be a final concentration in the well of 1.5 nM.
In addition, on day after the addition of a serum-free medium containing BMP4, the medium was half exchanged with a serum-free medium being free of Y27632 and BMP4 and containing SB-431542, K02288, FGF2, Heparin Sodium, and EGF (start of step (3c)). K02288, FGF2, Heparin Sodium, and EGF were added to the medium at 20 μM, 40 ng/ml, 20 μg/ml, and 40 ng/ml, respectively, to be final concentrations in the well were 10 μM, 20 ng/ml, 10 μg/ml, and 20 ng/ml. […]

A value given as a limit tells only on which side of the number the result lay.

B1: BMP4: BMP signaling pathway-activating substance, manufactured by R&D Systems (protein, UniProt P12644 293-408, looked up)
Bone morphogenetic protein 4: SPKHHSQRARKKNKNCRRHSLYVDFSDVGWNDWIVAPPGYQAFYCHGDCPFPLADHLNSTNHAIVQTLVNSVNSSIPKACCVPTELSAISMLYLDEYDKVVLKNYQEMVVEGCGCR
Consider B1, for which the “quality evaluation grade of cell clusters (circumference covered with non-neural epithelial tissue part)” value in the assay on human ES cells (0.5 nM or more BMP4 added in step (2), day 28, formed with high efficiency) is “Grade 1 (cell cluster in a form close to spherical, whose 80% or more of the entire circumference was covered with non-neural epithelial tissue part)”. In addition, in the assay with human ES cells (all BMP4 concentrations (0.025 to 5 nM) in step (2), day 28 after start of suspension culturing, bright-field observation), the “diameter of spherical cell clusters formed” value is “around 600 μm”. In addition, the “concentration of BMP4 added in step (2) at which Grade 1 cell clusters were formed with high efficiency” value in the assay with human ES cells (day 28, bright-field observation) is no less than 0.5 nM. For the same molecule, the “formation of non-neural epithelial tissue on the surface of the cell aggregate” value in the assay on human iPS cells (BMP4 1.5 nM added on any of days 1, 2, and 3 after start of suspension culturing) is “a non-neural epithelial tissue was formed on the surface of the cell aggregate”. The “formation of cell aggregates having non-neural epithelial tissues on the surface with larger diameter” value in the assay with human iPS cells (BMP4 1.5 nM added on day 2 after start of suspension culturing) is “most efficiently and stably formed”. Besides, the “formation of non-neural epithelial tissue on the surface of the cell aggregates” value in the assay with human iPS cells (BMP4 1.5 nM added on day 4 or 6 after start of suspension culturing) is reported as “no formation of non-neural epithelial tissue was observed”.

The values above are taken from patent US20210308188A1, “CELL CLUSTER INCLUDING OLFACTORY NEURON OR PRECURSOR CELL THEREOF, AND METHOD FOR PRODUCING SAME” (SUMITOMO CHEMICAL COMPANY, LIMITED, priority 2018, published 2021).
